Test results as given in the supplement of paper PMC11246515.
± gives the standard deviation of the averaged measurements.

Test: total protein half-life in vivo (active degradation + dilution); higher = more stable protein
[1] = E. coli NCM3722 delta-clpP delta-lon delta-hslV, growth: N-lim chemostat, doubling time 6 h
[2] = E. coli NCM3722 delta-clpP, growth: N-lim chemostat, doubling time 6 h
[3] = E. coli NCM3722 delta-hslV, growth: N-lim chemostat, doubling time 6 h
[4] = E. coli NCM3722 delta-lon, growth: N-lim chemostat, doubling time 6 h
[5] = E. coli NCM3722 delta-smpB, growth: N-lim chemostat, doubling time 6 h
[6] = wild type E. coli NCM3722, growth: C-lim chemostat, doubling time 3 h
[7] = wild type E. coli NCM3722, growth: C-lim chemostat, doubling time 6 h
[8] = wild type E. coli NCM3722, growth: C-lim chemostat, doubling time 12 h
[9] = wild type E. coli NCM3722, growth: N-lim chemostat, doubling time 6 h
[10] = wild type E. coli NCM3722, growth: N-lim chemostat, doubling time 12 h
[11] = wild type E. coli NCM3722, growth: P-lim chemostat, doubling time 6 h
[12] = wild type E. coli NCM3722, growth: P-lim chemostat, doubling time 12 h

| Sequence | total protein half-life in vivo [1] [h] | total protein half-life in vivo [2] [h] | total protein half-life in vivo [3] [h] | total protein half-life in vivo [4] [h] | total protein half-life in vivo [5] [h] | total protein half-life in vivo [6] [h] | total protein half-life in vivo [7] [h] | total protein half-life in vivo [8] [h] | total protein half-life in vivo [9] [h] | total protein half-life in vivo [10] [h] | total protein half-life in vivo [11] [h] | total protein half-life in vivo [12] [h] |
| --- | --- | --- | --- | --- | --- | --- | --- | --- | --- | --- | --- | --- |
| MIAELFTNNALNLVIIFGSCAALILMSFWFRRGNRKRKGFLFHAVQFLIYTIIISAVGSIINYVIENYKLKFITPGVIDFICTSLIAVILTIKLFLLINQFEKQQIKKGRDITSARIMSRIIKITIIVVLVLLYGEHFGMSLSGLLTFGGIGGLAVGMAGKDILSNFFSGIMLYFDRPFSIGDWIRSPDRNIEGTVAEIGWRITKITTFDNRPLYVPNSLFSSISVENPGRMTNRRITTTIGLRYEDAAKVGVIVEAVREMLKNHPAIDQRQTLLVYFNQFADSSLNIMVYCFTKTTVWAEWLAAQQDVYLKIIDIVQSHGADFAFPSQTLYMDNITPPEQGR [P0AEB5] | 6.12 ± 0.49 | 6.41 ± 0.17 | 6.48 ± 0.5 | 6.71 ± 0.27 | 6.07 ± 0.36 | 3.02 ± 0.1 | 6.34 ± 0.4 | 11.9 ± 0.12 | 6.02 ± 0.14 | 12.7 ± 1.4 | 5.86 ± 0.78 | – |
| MNKSGKYLVWTVLSVMGAFALGYIALNRGEQINALWIVVASVCIYLIAYRFYGLYIAKNVLAVDPTRMTPAVRHNDGLDYVPTDKKVLFGHHFAAIAGAGPLVGPVLAAQMGYLPGMIWLLAGVVLAGAVQDFMVLFVSTRRDGRSLGELVKEEMGPTAGVIALVACFMIMVIILAVLAMIVVKALTHSPWGTYTVAFTIPLALFMGIYLRYLRPGRIGEVSVIGLVFLIFAIISGGWVAESPTWAPYFDFTGVQLTWMLVGYGFVAAVLPVWLLLAPRDYLSTFLKIGTIVGLAVGILIMRPTLTMPALTKFVDGTGPVWTGNLFPFLFITIACGAVSGFHALISSGTTPKMLANEGQACFIGYGGMLMESFVAIMALVSACIIDPGVYFAMNSPMAVLAPAGTADVVASAAQVVSSWGFSITPDTLNQIASEVGEQSIISRAGGAPTLAVGMAYILHGALGGMMDVAFWYHFAILFEALFILTAVDAGTRAARFMLQDLLGVVSPGLKRTDSLPANLLATALCVLAWGYFLHQGVVDPLGGINTLWPLFGIANQMLAGMALMLCAVVLFKMKRQRYAWVALVPTAWLLICTLTAGWQKAFSPDAKVGFLAIANKFQAMIDSGNIPSQYTESQLAQLVFNNRLDAGLTIFFMVVVVVLALFSIKTALAALKDPKPTAKETPYEPMPENVEEIVAQAKGAH | 5.72 | 4.33 | 4.49 ± 0.2 | – | 4.96 ± 1.1 | 3.36 ± 0.37 | 5.34 ± 0.24 | 11.7 ± 0.39 | 5.33 ± 0.76 | – | 5.517 ± 0.042 | 10.3 ± 0.19 |
| MTILSLSRFMLAGVLLASFNASAIPGFWQQGYGQGNTEYSVTEASGKTFTINCTGNPDQNGFYQHSVFLTLADDKMVSSHDDDTTITVVMDHQQYIIPSSLGWRNGDNAWFDFISNISEAGQFDVYVNDHKAGTFTADRKNAEKVLSTLGDCSND | – | – | – | – | – | – | – | 5.33 | – | – | – | – |
| MLQFILRRLGLVIPTFIGITLLTFAFVHMIPGDPVMIMAGERGISPERHAQLLAELGLDKPMWQQYLHYIWGVMHGDLGISMKSRIPVWEEFVPRFQATLELGVCAMIFATAVGIPVGVLAAVKRGSIFDHTAVGLALTGYSMPIFWWGMMLIMLVSVHWNLTPVSGRVSDMVFLDDSNPLTGFMLIDTAIWGEDGNFIDAVAHMILPAIVLGTIPLAVIVRMTRSSMLEVLGEDYIRTARAKGLTRMRVIIVHALRNAMLPVVTVIGLQVGTLLAGAILTETIFSWPGLGRWLIDALQRRDYPVVQGGVLLVATMIILVNLLVDLLYGVVNPRIRHKK [P0AEF8] | 6.91 ± 0.36 | 6.54 ± 1.1 | 5.46 ± 0.53 | 5.39 ± 0.46 | 5.95 ± 0.45 | 3.53 ± 0.4 | 6.656 ± 0.039 | 13.1 ± 1.5 | 6.42 ± 0.19 | 13 ± 3.1 | 5.96 ± 0.41 | 11.5 ± 1 |
| MQERHTEQDYRALLIADTPIIDVRAPIEFEHGAMPAAINLPLMNNDERAAVGTCYKQQGSDAALALGHKLVAGEIRQQRMDAWRAACLQNPQGILCCARGGQRSHIVQSWLHAAGIDYPLVEGGYKALRQTAIQATIELAQKPIVLIGGCTGSGKTLLVQQQPNGVDLEGLARHRGSAFGRTLQPQLSQASFENLLAAEMLKTDARQNLRLWVLEDESRMIGSNHLPECLRERMTQAAIAVVEDPFEIRLERLNEEYFLRMHHDFTHAYGDEQGWQEYCEYLHHGLSAIKRRLGLQRYNELAARLDAALTTQLTTGSTDGHLAWLVPLLEEYYDPMYRYQLEKKAEKVVFRGEWAEVAEWVKAR | 4.83 ± 0.89 | 4.43 ± 0.057 | 4.35 ± 0.77 | 4.417 ± 0.0075 | 3.75 ± 0.5 | 3.16 ± 0.1 | 5.87 ± 0.98 | 10.2 ± 1.6 | 4.54 ± 0.24 | 7.414 ± 0.067 | 5.64 ± 0.47 | – |
| MTLDLPRRFPWPTLLSVCIHGAVVAGLLYTSVHQVIELPAPAQPISVTMVTPADLEPPQAVQPPPEPVVEPEPEPEPIPEPPKEAPVVIEKPKPKPKPKPKPVKKVQEQPKRDVKPVESRPASPFENTAPARLTSSTATAATSKPVTSVASGPRALSRNQPQYPARAQALRIEGQVKVKFDVTPDGRVDNVQILSAKPANMFEREVKNAMRRWRYEPGKPGSGIVVNILFKINGTTEIQ | 3.05 ± 0.064 | 3.18 ± 0.081 | 2.27 ± 0.21 | 1.79 ± 0.029 | 2.92 ± 1.7 | 1.93 ± 0.35 | 3.6 ± 0.45 | 5.81 ± 0.11 | 2.33 ± 0.17 | 3.29 ± 0.16 | 3.17 ± 0.13 | 6.09 ± 0.82 |
| MRHLRNIFNLGIKELRSLLGDKAMLTLIVFSFTVSVYSSATVTPGSLNLAPIAIADMDQSQLSNRIVNSFYRPWFLPPEMITADEMDAGLDAGRYTFAINIPPNFQRDVLAGRQPDIQVNVDATRMSQAFTGNGYIQNIINGEVNSFVARYRDNSEPLVSLETRMRFNPNLDPAWFGGVMAIINNITMLAIVLTGSALIREREHGTVEHLLVMPITPFEIMMAKIWSMGLVVLVVSGLSLVLMVKGVLGVPIEGSIPLFMLGVALSLFATTSIGIFMGTIARSMPQLGLLVILVLLPLQMLSGGSTPRESMPQMVQDIMLTMPTTHFVSLAQAILYRGAGFEIVWPQFLTLMAIGGAFFTIALLRFRKTIGTMA [P0AGH1] | – | – | 7.18 ± 0.3 | – | 6.13 ± 0.76 | 3.9 | 7.01 | 12.2 | 5.76 ± 0.3 | 10.5 | 7.25 ± 0.75 | 11.7 ± 0.4 |
